Where a SMILES comes first, the peptide text is derived from it. The star is where a group is joined. Cbz = O=C(OCc1ccccc1)*
Assays:
IRE1α = IRE1α phosphorylation in NIH3T3 cells (Western blot); assay type: cell-based
Experimental: (A) XBP-1 mRNA levels in ER stressed J558 cells treated with Tm for 4 hrs in the absence or presence of MG-132. Cells were pretreated with MG-132 for 1 hr before adding Tm. XBP-1 mRNA levels were determined by Northern blot analysis. […] (C) Effect of a panel of PIs on XBP-1 splicing. Cells were treated with Tm for 4 hrs in the absence or presence of MG-132 (10 μM), PS-341 (10 μM), Lactacystin (10 μM), ZL3VS (50 μM) or AdaAhxL3VS (50 μM), and XBP-1 mRNA splicing measured by RT-PCR analysis. (D) IRE-1α phosphorylation in NIH3T3 cells were treated with Tm as indicated after 2 hrs of pretreatment with MG-132 (10 μM).
Cells were lysed in RIPA buffer (50 mM Tris pH 7.4, 150 mM NaCl, 1 mM EDTA, 1% Triton X-100, 1% sodium deoxycholate, 0.1% SDS) and lysates subjected to SDS-PAGE and transferred to Hybond P membrane (Amersham-Pharmacia, Piscataway, N.J.). […] HeLa cells were cotransfected with XBP-1u and His-tagged ubiquitin expression plasmids (pMT 107, D. Bohmann, EMBL, Germany) by using the Lipofectamine-2000 reagent (Invitrogen, Carlsbad, Calif.). […] Degradation rates of XBP-1u and XBP-1s proteins were determined by pulse labeling J558 cells with ^35S Met/Cys for 1 hr and chasing for the indicated times.

IL-6 = IL-6 production by retrovirally transduced wt and XBP-1-/- B cells (ELISA, Northern blot); assay type: cell-based, murine; settings: for secretion of IL-6 compared to control cells: LPS 72 h
Experimental: (§1) Assays to measure immunoglobulin or cytokine levels in culture supernatants were performed as described (e.g., Hodge et al., 1996 Immunity. 4:397-405 or Science. 1996 274:1903-5).
(§2) The XBP-1 cDNAs for the unspliced (XBP-1u/s) and the spliced (XBP-1s) forms were PCR-amplified from the total RNA of untreated and tunicamycin treated NIH3T3 cells, respectively, with a primer set (5′-[…]-3′ (SEQ ID NO: 7) and 5′-[…]-3′) (SEQ ID NO: 8). XBP-1u form was generated by a PCR-based mutagenesis from XBP-unspliced/s cDNA so that the two G residues at position 532 and 535 were changed to A without changing amino acid sequences in the XBP-1u open reading frame. Numbers are based on the sequences from gene bank database (NM_013842 [gi:13775155]). These XBP-1 cDNAs were inserted into the GFP-RV retroviral vector by using blunt end ligation (Sambrook et al., 1989). EFFECTENE transfection (Quiagen) was used to introduce the DNA into the Phoenix cell line as described by manufacturer (e.g., Reimold et al., 2001 Nature. 412:300-7 or Int Immunol. 2001 13:241-8). Viral supernatants were harvested after 48 hours and frozen at −80° C. for later use. B cells were purified from mouse spleens using CD43 depletion or positive selection with B220+ magnetic beads as described by the manufacturer (MidiMacs, Miltenyi Biotech). B cell purity was generally near 95% as confirmed by flow cytometry. The B cells (10^6 cells /ml) were then activated in culture with LPS 10 μg/ml and F (ab′)2 anti-IgM (5 μg/ml Southern Biotechnology Associates Inc.) for 24 hours. The 1 ml of activated B cells (10^6 cells/ml) were mixed with 4 μg of polybrene and 1 ml of virus-containing supernatant and spun at 1000 g for 45 minutes at 24° C. Cells were incubated for 24-36 h at 37° C. and then GFP+ cells were flow sorted and returned to culture with and without stimulation.
In human multiple myeloma cells, XBP-1 was induced by IL-6 treatment and implicated in the proliferation of malignant plasma cells (Wen et al., 1999). However, no role for IL-6 in upregulating XBP-1 transcripts or in mediating splicing of XBP-1 RNA in mature B cells has been described (FIG. 6A). The ability of XBP-1 to induce IL-6 production in wt and XBP-1^−/− primary B cells was tested. As described above, in vitro activated murine splenic B cells were transduced using retroviruses expressing bicistronic mRNA for XBP-1u/s, XBP-1s, XBP-1u and control GFP. After cell sorting, GFP^+ cells were stimulated with LPS and assayed for cytokine production after 72 h. In FIG. 6 panel (A) purified B cells from wt and XBP-1^−/− mice were activated in culture with LPS 10 μg/ml and F(ab′)2 anti-IgM (5 μg/ml ) for 24 hours. Retroviral transduction with GFP alone (GFP-Rv), XBP-1u/s (XBP-1 u/s GFP Rv), XBP-1s (XBP-1s GFP Rv) or XBP-1u (XBP-1u GFP Rv) of activated B cells was performed. Cells were incubated for 24-36 h at 37° C. and then GFP+ cells were flow sorted and then returned to culture with LPS stimulation (10 μg/ml) for 72 h. Cytokine production was analyzed by ELISA from culture supernatants of stimulated B cells. Experiments were done at least three times and standard deviation is shown. In panel (B) Total RNAs were prepared from stimulated B cells above and XBP-1 mRNA levels were determined by Northern blot analysis with γ-actin control

XBP-1^−/− B cells = experiment: Ig production by retrovirally transduced XBP-1-/- primary B cells (ELISA); assay type: cell-based, mouse; settings: LPS 10 μg/ml 72 h
Experimental: as §1, §2
The effects of these three different forms of XBP-1 on Ig secretion were compared in wild type and XBP-1^−/− B cells. In vitro activated splenic B cells were transduced using retroviruses expressing bicistronic mRNA encoding XBP-1u/s, XBP-1s, XBP-1u or control GFP. In FIGS. 5(A) and (B) purified B cells from wt and XBP-1^−/− mice were activated in culture with LPS 10 μg/ml and F (ab′)2 anti-IgM (5 μg/ml) for 24 hours. Retroviral transduction with GFP alone (GFP-Rv), XBP-1u/s (XBP-1u/s GFP Rv), XBP-1s (XBP-1s GFP Rv) or XBP-1u (XBP-1u GFP Rv) of activated B cells was performed. Cells were incubated for 24-36 h at 37° C. and then GFP+ cells were flow sorted and then returned to culture with LPS stimulation (10 μg/ml) for 72 h. IgM panel(A) and IgG2b panel (B) production analyzed by ELISA from culture supernatants of stimulated B cells. Experiments were done at least three times and standard deviation is shown.

CC(C)C[C@@H](C=O)NC(=O)[C@H](CC(C)C)NC(=O)[C@H](CC(C)C)NC(=O)OCc1ccccc1 [MG-132] (Cbz-Leu-Leu-Leu-aldehyde)
effect on Tm-induced IRE1α phosphorylation (IRE1α; 2 hrs pretreatment with MG-132 10 μM): completely blocked the phosphorylation of IRE1α by Tm

tunicamycin [Tm]
IRE1α phosphorylation (IRE1α; Tm-treated vs untreated cells): increase in the phosphorylated (slower mobility) and decrease in unphosphorylated IRE1α species

B1: XBP-1s: vector encoding only the spliced form of murine XBP-1, a protein of 371 aa (protein)
chain: MVVVAAAPSAATAAPKVLLLSGQPASGGRALPLMVPGPRAAGSEASGTPQARKRQRLTHLSPEEKALRRKLKNRVAAQTARDRKKARMSELEQQVVDLEEENHKLQLENQLLREKTHGLVVENQELRTRLGMDTLDPDEVPEVEAKGSGVRLVAGSAESAAGAGPVVTSPEHLPMDSDTVASSDSESDILLGILDKLDPVMFFKCPSPESASLEELPEVYPEGPSSLPASLSLSVGTSSAKLEAINELIRFDHVYTKPLVLEIPSETESQTNVVVKIEEAPLSSSEEDHPEFIVSVKKEPLEDDFIPELGISNLLSSSHCLRPPSCLLDAHSDCGYEGSPSPFSDMSSPLGTDHSWEDTFANELFPQLISV
secretion of IL-6 compared to control cells (IL-6; XBP-1-/- B cells): seven fold | increase in IL-6 gene expression compared to controls (Northern blot) (IL-6; XBP-1s transduced cells): ~5 fold | secretion of IL-6 compared to control cells (IL-6; wild type B cells): approximately ten-fold | secretion of IgM compared to control cells (XBP-1^−/− B cells): approximately ten-fold

Source: US20040170622A1, “Methods and compositions for modulating XBP-1 activity” (President and Fellows of Harvard College, priority 2002, published 2004)
